{"source": "paper PMC8295636", "biological_target": "p53", "test": "two-hybrid", "data": [{"substance": "SV40T (natural protein)", "values": [{"measurement": "fold increase of reporter expression over negative controls", "result": "> 130", "unit": "times"}]}]}
